The source of these data is paper PMC3205248.

For the test, the target named is His6-DIP1-c (Disconnected Interacting Protein 1, longest isoform) (Drosophila melanogaster). Description: AUC.

Take “His6-DIP1-c (Disconnected Interacting Protein 1, longest isoform) (natural protein)”: the stoichiometry N – broadly, a count of units in the complex or per binding partner – was found to be 2.
